The target in experiment [1] is T1, human CD73 on the cell surface of CHOK1-huCD73-3F4 cells (Huabo Biopharm) (human, UniProt P21589 27-549).
T1 sequence (looked up): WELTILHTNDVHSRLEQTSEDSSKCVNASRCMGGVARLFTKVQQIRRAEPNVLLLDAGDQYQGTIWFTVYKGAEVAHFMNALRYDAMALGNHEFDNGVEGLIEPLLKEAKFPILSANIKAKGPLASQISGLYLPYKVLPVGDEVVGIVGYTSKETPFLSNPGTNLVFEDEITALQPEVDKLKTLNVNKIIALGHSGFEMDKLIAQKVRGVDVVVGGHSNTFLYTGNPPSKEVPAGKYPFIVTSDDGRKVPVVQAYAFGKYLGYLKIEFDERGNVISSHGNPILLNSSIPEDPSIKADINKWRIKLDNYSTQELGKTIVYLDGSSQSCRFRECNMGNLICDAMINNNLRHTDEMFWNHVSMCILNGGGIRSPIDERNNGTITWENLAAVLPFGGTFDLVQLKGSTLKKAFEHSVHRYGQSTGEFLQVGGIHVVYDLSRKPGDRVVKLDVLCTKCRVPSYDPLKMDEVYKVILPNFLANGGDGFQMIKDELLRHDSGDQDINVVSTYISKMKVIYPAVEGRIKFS
Kind of experiment: cell-based or functional assay.

Experiment [2] has as its target T1, human CD73 on the cell surface of …. Kind of experiment: flow cytometry on CHOK1-huCD73-3F4 cells, PE-goat anti-human-Fc. How it is done: (§1) All antigen-binding proteins were diluted to 30 μg/ml with 1% BSA in PBS solution (1% BSA/PBS) and then 3-fold diluted for 11 gradients. The diluted antigen-binding proteins were added to a 96-well U-shaped plate at 20 μL per well; and a negative control (with 1% BSA/PBS added only) was set up at the same time. The suspension of cells (CHOK1-huCD73-3F4, Huabo Biopharm) expressing human CD73 during the logarithmic growth phase were centrifuged (1000 rpm×5 min) to discard the culture medium; and the cells were resuspended with 1% BSA/PBS until the density of viable cells was 1×10⁶/mL, and were added, at 20 μL (2×10⁴ cells) per well, to the 96-well U-shaped plate with the […] antigen-binding protein to react for 30 min at room temperature. After reaction, the 96-well U-shaped plate was resuspended with 1% BSA/PBS, centrifuged (300 g×3 min) to discard the supernatant, and washed once in such a way. PE-goat anti-human-Fc (Jackson ImmunoResearch, #109-115098) diluted at 1:200 was added to react for 15 min in the dark at room temperature. After reaction, the 96-well U-shaped plate was resuspended with 1% BSA/PBS, centrifuged (300 g×3 min) to discard the supernatant, washed three times in such a way, and finally resuspended with 100 μL of 1% BSA/PBS for each wall; and the fluorescence intensity of a PE channel was detected with a flow cytometer (BD, #Cantoll).
(Flow cytometry measures light scatter and fluorescence of single cells or particles in a stream.)

Experiment [3] addresses T2, Trypsin inhibitor type 1-S from Glycine max (Sigma, T-2327) (Glycine max, UniProt P01070 25-205).
T2 construct: Non-target molecule, amine-coupled to a CM5 chip
T2 sequence (looked up): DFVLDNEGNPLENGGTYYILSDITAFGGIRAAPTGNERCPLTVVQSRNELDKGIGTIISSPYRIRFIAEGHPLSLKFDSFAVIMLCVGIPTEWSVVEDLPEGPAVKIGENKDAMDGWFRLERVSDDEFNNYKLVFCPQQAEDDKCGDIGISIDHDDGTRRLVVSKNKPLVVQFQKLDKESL
In words: SPR, Biacore 8K, trypsin inhibitor immobilized on CM5, antibody at 1000 nM; buffer alone 13.9 RU. How it is done:
The non-specific adsorption effect of antigen-binding proteins and non-target molecules were determined by using the SPR method.
The series sensor chip CM5 (GE, #BR-1005-30) was equilibrated at room temperature for 20-30 min and then loaded into the Biacore 8K (GE) instrument. Lysozyme solution (Sigma, #L3790) from egg and trypsin inhibitor type 1-S (Sigma, #T-2327) from Glycine max were immobilized onto the CM5 chip using an amino coupling kit (GE, #BR-1000-50). The injection buffer was HBS-EP (1×) (GE, #BR-1006-69) and four equilibration cycles were set up. The polyclonal rabbit anti-lysozyme (ABcam, Ab391), anti-trypsin inhibitor antibodies (LifeSpan Biosciences, #LS-C76609), chimeric antibodies and humanized antibodies were diluted with equilibration buffer to 1000 nM, and the flow rate was set at 5 μL/min and injection channels 1, 2 and 3, Flow Cell 1 and 2 were selected. The association time was 10 min and the dissociation time was 10 min.
The PI of carboxymethyl dextran was 3.5, the PI of the trypsin inhibitor was 4.5, and the PI of lysozyme was 11.3. In the HBS-EP buffer solution with a pH of 7.4, carboxymethyl dextran and the trypsin inhibitor had strong negative charges, and lysozyme had strong positive charges.

In experiment [4] the target is T1, human CD73 on the cell surface of …. Kind of experiment: cell-based or functional assay. This is another data set of the same source.
For experiment [5] the target is unchanged. Kind of experiment: flow cytometry on CHOK1-huCD73-3F4 cells, PE-goat anti-human-Fc. The protocol:
as §1
This is another data set of the same source.

The results in this text go back to patent US20240067747A1 (SHANGHAI HUAOTA BIOPHARMACEUTICAL, published 2024).

Like-named read-outs stand apart in the source and are kept apart here.

B1: 900725 (humanized anti-CD73 antigen-binding protein) (antibody, V domains shown)
VH: QVQLVQSGAEVKKPGASVKLSCKASGYTFTSYWIHWVRQAPGQGLEWIGMIHPNSGSTYYNEKFKGRATLTVDKSTSTAYMELSSLRSEDTAVYYCARYYGSDYEWYFDVWGQGTTVTVSS
VL: DIQMTQSPSSMSASVGDRVTITCKASQNVRTAVVWYQQKPGKAPKALIYLASNRHTGVPDRFSGSGSGTDFTLTISSLQPEDFATYFCLQHWNYPYTFGQGTKLEIK
By EC50 is commonly meant the concentration that produces a half-maximal response. A higher EC50 goes with a less potent agent. With B1, the “EC50 of inhibition of the enzyme activity of CD73 on cell membrane (AMP/ATP, CellTiter-Glo)” value (from here on “EC50 of inhibition … (AMP/ATP, CellTiter-Glo)”) in experiment [1] was 0.0697 µg/mL. The molecule also gave an EC50 in experiment [2] of 0.106 µg/mL. Moreover, in experiment [3], the “non-specific binding amount (RU)” value is 12.6 RU.

B2: 900726 (humanized anti-CD73 antigen-binding protein) (antibody, V domains shown)
VH: QVQLVQSGAEVKKPGASVKLSCKASGYTFTSYWIHWVRQAPGQGLEWIGMIHPNSGSTYYNEKFKGRATLTVDKSTSTAYMELSSLRSEDTAVYYCARYYGSDYEWYFDVWGQGTTVTVSS
VL: DIQMTQSPSSLSASVGDRVTITCKASQNVRTAVVWYQQKPGKAPKALIYLASNRHTGVPDRFSGSGSGTDFTLTISSLQPEDFATYYCLQHWNYPYTFGQGTKLEIK
In experiment [2], B2 registered an EC50 of 0.174 µg/mL. Further, the “non-specific binding amount (RU)” value in experiment [3] worked out at 15.4 RU.

B3: 900727 (humanized anti-CD73 antigen-binding protein) (antibody, V domains shown)
VH: QVQLVQSGAEVKKPGASVKVSCKASGYTFTSYWIHWVRQAPGQGLEWIGMIHPNSGSTYYAQKFQGRVTITVDKSTSTAYMELSSLRSEDTAVYYCARYYGSDYEWYFDVWGQGTTVTVSS
VL: DIQMTQSPSSMSASVGDRVTITCKASQNVRTAVVWYQQKPGKAPKALIYLASNRHTGVPDRFSGSGSGTDFTLTISSLQPEDFATYFCLQHWNYPYTFGQGTKLEIK
Take B3: the “non-specific binding amount (RU)” value in experiment [3] came out at 11.6 RU.

B4: 900728 (humanized anti-CD73 antigen-binding protein) (antibody, V domains shown)
VH: QVQLVQSGAEVKKPGASVKVSCKASGYTFTSYWIHWVRQAPGQGLEWIGMIHPNSGSTYYNEKFQGRVTMTVDKSTSTAYMELSSLRSEDTAVYYCARYYGSDYEWYFDVWGQGTTVTVSS
VL: DIQMTQSPSSLSASVGDRVTITCKASQNVRTAVVWYQQKPGKAPKALIYLASNRHTGVPDRFSGSGSGTDFTLTISSLQPEDFATYYCLQHWNYPYTFGQGTKLEIK
For B4, in experiment [1], the “EC50 of inhibition … (AMP/ATP, CellTiter-Glo)” value was 0.0467 µg/mL. Further, in experiment [2], the EC50 came out at 0.105 µg/mL. Besides, in experiment [3], the “non-specific binding amount (RU)” value came to 13.5 RU.

B5: 900567 (human-mouse chimeric anti-CD73 antigen-binding protein expressed from 124A9 variable regions) (antibody, V domains shown)
VH: QVQLQQPGAELVKPGASVKLSCKASGYTFTSYWIHWVKQRPGQGLDWIGMIHPNSGSTYYNEKFKSKATLTVDKSSSTAYMQLSSLTSEDSAVYYCARYYGSDYEWYFDVWGTGTTVTVSS
VL: DIVMTQSQKFMSTSVGDRVSITCKASQNVRTAVVWYQQNPGQSPKALIYLASNRHTGVPDRFTGSGSGTDFTLTISNVHSEDLADYFCLQHWNYPYTFGGGTKLEIK
Consider B5, for which the entries for the “EC50 of inhibition … (AMP/ATP, CellTiter-Glo)” value in experiment [4] and in experiment [1] were 0.0749 µg/mL and 0.025 µg/mL, respectively. Also, the figures for the EC50 in experiment [5] and in experiment [2] were 0.021 µg/mL and 0.065 µg/mL, respectively. Moreover, the “non-specific binding amount (RU)” value in experiment [3] amounted to 12.8 RU.
